# Experimental data reported in the supplement of paper PMC9170038.
# System: MS2 coat protein
# Experiment: apparent KD of MS2 coat protein; designed switch direction (-1 OFF switch, 1 ON switch): -1; higher = weaker reporter binding
# Summary of the method: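 Transcription of designed RNA switches on Illumina chips was done by stalled E. coli RNA polymerase. SNAP-549-labelled MS2 coat protein was then titrated in doubling steps from 0.7 or 1.5 nM to 3 µM, with steps of 0.8–1.5 h at the lowest and 10–20 min at the highest concentration. The per-design median over clusters of curve-fitted normalised fluorescence is reported as apparent KD.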
# [1] = Eterna round: R95, input ligand: FMN 200 uM
# [2] = Eterna round: R95, input ligand: microRNA oligo, concentration not stated
# [3] = Eterna round: R95, input ligand: none
# [4] = input ligand: microRNA oligo, concentration not stated
Sequence,apparent KD of MS2 coat protein [1],apparent KD of MS2 coat protein [2],apparent KD of MS2 coat protein [3],apparent KD of MS2 coat protein (input ligand: FMN 200 uM),apparent KD of MS2 coat protein (input ligand: none),apparent KD of MS2 coat protein [4]
"CAUGAUCUUCGGAUCAUGUACAUGAGGAUCACCCAUGUGACGAGUUGAUCCUCAAACAAGCUUUUUGCUCGUCUUAU [Sensor v3 - Turn-off variant 1 - 18] (puzzle: Sensor v3, turn-off variant 1)",17 nM,10.6 nM,17.5 nM,–,–,–
"GGGAAGAACCAACAAGUAGACAUGAGGAUCACCCAUGUAGACUUCAUGUAGGAAAGGAAAGGAAGAGCUCGUCUUAU [AK-miRNA-r3-12] (Eterna round: R97, puzzle: Sensor, turn-off variant 1)",–,–,–,21.6 nM,28.5 nM,–
"UUAACAUGCUGGUGAUCAUACAUGAGGAUCACCCAUGUAACAAGCUUUUUGUUCGUCUUAUAAGAUUACUAGUAUGU [Stov1/10-B1] (Eterna round: R97, puzzle: Sensor, turn-off variant 1)",–,–,–,39.4 nM,59.4 nM,–
CGUGCGUAUGUGAGGAUAUGCUGGUCCUUGGAUCGGCAGAAGGCACAUGAGGAUCACCCAUGUGGUGUCGUACA [salish99_Bmod_ex4_088] (puzzle: Brourd's mod of Exclusion 4),–,215 nM,–,–,–,–
"GGGCCCGGUGUGAGGAUAUCGGGCCCGAAAGGGUUUGAGAAGGCACAUGAGGAUCACCCAUGUAAGCCGGGCCC [-41.1, -39 kcal, A 23%, 5b-0] (Eterna round: R97, puzzle: Brourd's mod of Exclusion 4)",–,–,–,17.1 nM,15.3 nM,–
"GUGAUCUAUCAUGUAAUGAACAUGAGGAUCACCCAUGUAGACAAGUUUUUUGCUCGUCUCAUAAUAAGAUAGAUCAC [Antenna 17 - Jieux - Sensor, turn-off variant 1] (Eterna round: R97, puzzle: Sensor, turn-off variant 1)",–,–,–,17.5 nM,19.3 nM,–
"CAGUACUGAGGAUAUACAUGAGGAUCACCCAUGUGUCCUCUAUUAGGAAACUAGUUAUGUAGAAGGCAGUACUG [Omei Ex3 Mod of Eli 4.27 v10] (Eterna round: R97, puzzle: Exclusion 3)",–,–,–,1060 nM,1050 nM,–
"AAAUUGGUAGAGGAUAUCGUACAGGAAACGAUGCGAGAAGGUUGCACAUGAGGAUCACCCAUGUUUAGUUGCGA [EX6 #43] (Eterna round: R97, puzzle: Exclusion 6)",–,–,–,23.3 nM,20.8 nM,–
"AGGUGUAGAGGAUAUACAGUGUAUUACAUGAGGAUCACCCAUGUCCUUCAAUGGGUAUCAGUAGAAGGCUACACCA [Omei Ex5 C1] (Eterna round: R97, puzzle: Exclusion 5)",–,–,–,1060 nM,485 nM,–
"GGUAUACAUGAGGAUCACCCAUGUCAGGAUAUGGAAACCUGUGCCGAAAGGCACAGGGCCAGAAGGGACGAUAG [AK-MS2ROC-r4-exclusion1-5.3] (Eterna round: R97, puzzle: Exclusion 1)",–,–,–,93.7 nM,82.9 nM,–
"UAUUAGCAAGCGAGAUCCCACAUGAGGAUCACCCAUGUGCUCGUCUGCUCCAGAAUUACUGGAGCAGCUCGUCUUAU [Winner reversed engineered 19] (Eterna round: R97, puzzle: Sensor, turn-off variant 1)",–,–,–,21.7 nM,22.4 nM,–
"GAUAUCUCAGGAUAUACAUGCCCUCCGAAACGGAGUCAUGAACAUGAGGAUCACCCAUGUAGAAGGGAGAUAUC [Alacar 2] (Eterna round: R97, puzzle: Exclusion 2)",–,–,–,25.5 nM,15.8 nM,–
"GUUCCACAUGAGGAUCACCCAUGUGAGGAUAUGGUUUCGCUGGCCGUAGCCAGUGGAACCAGAAGGCGCGUGAU [Mat - Exclusion 1 - JL Mod - D19] (Eterna round: R97, puzzle: Exclusion 1)",–,–,–,80.8 nM,67.3 nM,–
"UGCCUUUGAGGAUAUACAUAGAAAUAGAUUCAUGUAAAACUACAUGAGGAUCACCCAUGUAGAAGGCAAGGGCU [Mat - Exclusion 2 - JL Mod - D52] (Eterna round: R97, puzzle: Exclusion 2)",–,–,–,83.6 nM,24 nM,–
"CCGGAAAUGAAGGAUAUAGGUGUCGAUAGACUCCUAGAAGGUCAUACAUGAGGAUCACCCAUGUGUCCUACCGG [Fiskers Ex 6 - 76] (Eterna round: R96, puzzle: Exclusion 6)",–,–,–,36.7 nM,18 nM,13.3 nM
CUUUGGGCAGGAUAUGCUGUUUGUGACAUGAGGAUCACCCAUGUGAUGCAGUUUGGGUGUGCAGAAGGGCCUGAGA [JR_E5_Sub030] (puzzle: Exclusion 5),115 nM,72.6 nM,110 nM,–,–,–
"CUAUCGUGAGGAUAUGACCCAUAAGCACUAAAGUAGGUGAGUCAGAAGGCACAUGAGGAUCACCCAUGUGGACC [Eternabot (L1) Solution 47] (Eterna round: R97, puzzle: Exclusion 4)",–,–,–,59.8 nM,21.9 nM,–

Sequence,apparent KD of MS2 coat protein [1],apparent KD of MS2 coat protein [2],apparent KD of MS2 coat protein [3],apparent KD of MS2 coat protein (input ligand: FMN 200 uM),apparent KD of MS2 coat protein (input ligand: none),apparent KD of MS2 coat protein [4]
"CGCAUACAUGAGGAUCACCCAUGUGAGGAUAUCAUGCUUCGUAGUAAACUACGAAGUGUGAGAAGGCACAUGCG [Omei Ex1 D2] (Eterna round: R97, puzzle: Exclusion 1)",–,–,–,112 nM,62.6 nM,–
"GAUCUACAUGAGGAUCACCCAUGUAAGGAUAUCUACAUUGAAGCUUCGGCUUCAAUGUAGAGAAGGUACAAUUA [E1/10-B1] (Eterna round: R97, puzzle: Exclusion 1)",–,–,–,40.7 nM,27.9 nM,–
"AGAUGCUUAAGUCGACAUGAGGAUCACCCAUGUACAGUUAACGAGGAUAUCCGAAAUAAAUAAUAGGAGAAGGCGUGAUCAUGA [Ex NG3 #1] (Eterna round: R96, puzzle: Exclusion NG 3)",–,–,–,82.4 nM,307 nM,145 nM
"AAGAUGCGGGUAGGAUAUGGAGAGAAAGAAAGACCAGAAGGAUUGGUCAUAUAACAUGAGGAUCACCCAUGUAUAUGUUGCGAA [EX ng 1 5] (Eterna round: R96, puzzle: Exclusion NG 1)",–,–,–,19.6 nM,21 nM,16.2 nM
AUGGUACAUGAGGAUCACCCAUGUUAGGAUAUCGCGUGAUCUAAAACUAAGAGACACACGAGAAGGGACGACAU (puzzle: Exclusion 1),–,128 nM,–,–,–,–
"AAUAAUGAUAAGGAUAUCACUAGCGAUAGCUAGUGAGAAGGUAUCACAUGAGGAUCACCCAUGUGUUCCAAUAA [Ex6/6-A4] (Eterna round: R97, puzzle: Exclusion 6)",–,–,–,35.2 nM,17 nM,–
"UCCUGACAUGAGGAUCACCCAUGUUAGGAUAUAACAUUUGACGCGACAGUGUGGAGUGUUAGAAGGGAUGUGGG [-29.5, -26.8 kcal, A 27%] (Eterna round: R97, puzzle: Exclusion 1)",–,–,–,20.5 nM,17.4 nM,–
"ACAUGAGGAUCACCCAUGUCAGGCUGGUCCACUCCGGCUGUUGAGGAUAUAGCCCGGUAUCCGCGCUAGAAGGUGAGGGCCGGC [Aenatbe mod 27] (Eterna round: R96, puzzle: Exclusion NG 3)",–,–,–,25.5 nM,23 nM,17.6 nM
UCAUGUUUAGAGGAUAUGAUUACUCUAGAGUGAUCAGAAGGCUAGACAUGAGGAUCACCCAUGUCAGAACAUGC [Exclusion 6 - B - 17:b] (puzzle: Exclusion 6),17.7 nM,24.7 nM,31.9 nM,–,–,–
"UAUUAACAAGCAAGAUCCUACAUGAGGAUCACCCAUGUGUUCGUCUUAUAAGGUACUGUGACGAAAGUCACGGUACC [Sensor 3, v1 - 75] (puzzle: Sensor v3, turn-off variant 1)",76 nM,321 nM,108 nM,–,–,–
"UCGUCGUCUGCGCCUGGACACAUGAGGAUCACCCAUGUCCCUAGCGGUUUACCGCUGUGACAAAACAAGCUGCUCGU [Eternabot (Original) Solution 25] (Eterna round: R97, puzzle: Sensor, turn-off variant 1)",–,–,–,145 nM,185 nM,–
"GGCGAAGUAGGAUAUACAUGAGGAUCACCCAUGUAACCUAUAGGCGAAGAUCUUCUAUGUAGAAGGACUACGCU [jl-ex3-4.40 ViennaUCT mod] (Eterna round: R97, puzzle: Exclusion 3)",–,–,–,15.3 nM,15.3 nM,–
GAGGGACAUGAGGAUCACCCAUGUGAGGAUAUGUGAGAAGGAUUGGAGAGAAUAAGAAACAGAAGGCGCGGGAG [JR_Exclu1_Sub087] (puzzle: Exclusion 1),48.9 nM,52.5 nM,116 nM,–,–,–
AACGUGGCUUAGGAUAUUGCUACGCAAAAGUAACAAGAAGGAAGCACAUGAGGAUCACCCAUGUGAUUCGUUGA [Larevean] (puzzle: Exclusion 6),27.1 nM,12.2 nM,13.3 nM,–,–,–
"AAAAUAACAUGAGGAUCACCCAUGUAAUUGGGUAGUCCGAGCGAGGAUAUCCUCGCCGGAAAAGAGGAGAAGGCGCAAUGAAAG [Usxeeran] (Eterna round: R96, puzzle: Exclusion NG 3)",–,–,–,882 nM,509 nM,424 nM
"UGCAGACGAGGAUAUAAACGAUAUAACAUGAGGAUCACCCAUGUACGAUCGAUAGAUCGUUUAGAAGGCGUCUGCA [E5/9-A2] (Eterna round: R97, puzzle: Exclusion 5)",–,–,–,12.8 nM,14.5 nM,–
"AUCUUGUCAGGAUAUCGUACAAUAUGGAAAACAUAGAGGUACGAGAAGGGACAUGAGGAUCACCCAUGUAAAAC (Eterna round: R96, puzzle: Exclusion 4)",–,–,–,–,–,29 nM
